# Measured values taken from publication PMC9036094, “Antigen-derived peptides engage the ER stress sensor IRE1α to curb dendritic cell cross-presentation” (The Journal of Cell Biology, 2022).
# How the values were obtained:
# [1] = test system: PERK (ATF4, CHOP) in BMDCs; test: PERK activation in BMDCs (immunoblot of ATF4 and CHOP); format: cell-based, mouse; settings: MG132 5 μM or ovalbumin 500 μg/ml, in words
# Experimental: (§1) Figure S1. Antigen pulsing of BMDCs activates IRE1α. (A) BMDCs were treated with MG132 (5 μM) or ovalbumin (500 μg/ml) for indicated time points and analyzed by IB. (B) BMDCs were pulsed with ovalbumin (500 μg/ml) and G9668 (3 μM) for indicated time periods and analyzed by IB. (C) Molecular structure, potency, and kinase selectivity of G9668. (D) Schematic representation of G9668 interaction with 220 kinases at 1 μM. Size and color of circles represent interaction strength. Analysis was conducted by KinomeScan. (E) BMDCs were pulsed for 4 h with APC-tagged ovalbumin or soluble CD4-Fc protein (500 μg/ml) with amiloride (10 μM); uptake of protein was assayed by flow cytometry (n = 3). (F) WT or MyD88 KO Flt3L-derived BMDCs were pulsed with ovalbumin (500 μg/ml) or soluble CD4-Fc protein (500 μg/ml), or treated with LPS (10 μg/ml) for 4 h and analyzed by IB. (G) MEFs and BMDCs were pulsed with ovalbumin or treated with Tg (100 nM) for 4 h and analyzed by IB. Images in A, B, F, and G represent at least two similar experiments, and molecular weights represent kD; E bar graphs represent mean ± SD from three independent biological repeats. Analysis for E was performed using unpaired, two-tailed t test; *, P ≤ 0.05; **, P ≤ 0.01. Source data are available for this figure: SourceData FS1. […]
# [2] = test system: IRE1α in mouse embryonic fibroblasts (MEFs); test: IRE1α activation in MEFs (immunoblot); format: cell-based; settings: ovalbumin, 4 h
# Experimental: as §1
molecule,measurement,setting,value
ovalbumin: classical protein antigen ovalbumin (Sigma-Aldrich) (protein) MGSIGAASMEFCFDVFKELKVHHANENIFYCPIAIMSALAMVYLGAKDSTRTQINKVVRFDKLPGFGDSIEAQCGTSVNVHSSLRDILNQITKPNDVYSFSLASRLYAEERYPILPEYLQCVKELYRGGLEPINFQTAADQARELINSWVESQTNGIIRNVLQPSSVDSQTAMVLVNAIVFKGLWEKAFKDEDTQAMPFRVTEQESKPVQMMYQIGLFRVASMASEKMKILELPFASGTMSMLVLLPDEVSGLEQLESIINFEKLTEWTSSNVMEERKIKVYLPRMKMEEKYNLTSVLMAMGITDVFSSSANLSGISSAESLKISQAVHAAHAEINEAGREVVGSAEAGVDAASVSEEFRADHPFLFCIKHIATNAVLFFGRCVSP,PERK activation,[1],did not show a measurable response
same,"IRE1α activation, MEFs",[2],did not display detectable IRE1α activation
